Measurements published in patent US9046519 (RSR, dated 2015).
Changes are numbered by the printed parent chain. Read-outs that look alike come from different tables or passages of the source.

B1: TSHR Asp232 to Ala, Arg255 to Ala and Trp258 to Ala (receptor)
chain: GMGCSSPPCECHQEEDFRVTCKDIQRIPSLPPSTQTLKLIETHLRTIPSHAFSNLPNISRIYVSIDVTLQQLESHSFYNLSKVTHIEIRNTRNLTYIDPDALKELPLLKFLGIFNTGLKMFPDLTKVYSTDIFFILEITDNPYMTSIPVNAFQGLCNETLTLKLYNNGFTSVQGYAFNGTKLDAVYLNKNKYLTVIDKDAFGGVYSGPSLLAVSQTSVTALPSKGLEHLKELIAANTATLKKLPLSLSFLHLTRADLSYPSHCCAFKNQKKIRGILESLMCNESSMQSLRQRKSVNALNSPLHQEYEENLGDSIVGYKEKSKFQDTHNNAHYYVFFEEQEDEIIGFGQELKNPQEETLQAFDSHYDYTICGDSEDMVCTPKSDEFNPCEDIMGYKFLRIVVWFVSLLALLGNVFVLLILLTSHYKLNVPRFLMCNLAFADFCMGMYLLLIASVDLYTHSEYYNHAIDWQTGPGCNTAGFFTVFASELSVYTLTVITLERWYAITFAMRLDRKIRLRHACAIMVGGWVCCFLLALLPLVGISSYAKVSICLPMDTETPLALAYIVFVLTLNIVAFVIVCCCYVKIYITVRNPQYNPGDKDTKIAKRMAVLIFTDFICMAPISFYALSAILNKPLITVSNSKILLVLFYPLNSCANPFLYAIFTKAFQRDVFILLSKFGICKRQAQAYRGQRVPPKNSTDIQVQKVTHEMRQGLHNMEDVYELIENSHLTPKKQGQISEEYMQTVL
notes: whole, on cells; as m1
B2: TSHR Arg255 to Ala, Trp258 to Ala and Tyr185 to Ala (receptor)
chain: B1 chain with Y165A, A212D
notes: whole, on cells; as m1
B3: TSHR Arg255 to Ala, Lys183 to Ala and Tyr185 to Ala (receptor)
chain: B1 chain with K163A, Y165A, A212D, A238W
notes: whole, on cells; as m1
B4: TSHR Arg255 to Ala, Trp258 to Ala, Tyr185 to Ala and Lys183 to Ala (receptor)
chain: B1 chain with K163A, Y165A, A212D
notes: whole, on cells; as m1
B5: TSHR Trp258 to Ala, Lys183 to Ala and Tyr185 to Ala (receptor)
chain: B1 chain with K163A, Y165A, A212D, A235R
notes: whole, on cells; as m1
B6: 9D33 MAb (antibody, V domains shown)
VH: DVQIQQPGTELVKPGASVRLSCKASGYTFTTYWMHWVKQRPGQGLEWIGEIDPSDSYTNYNQKFKGKATLTVDKSSSTAYMHLSSLTSEDSAVYYCSRNYGSGYYFDYWGQGTTLTVSS
VL: GVEMTQSPAIMSASPGEKVTMTCSASSSVSYMHWYQQKSGTSPKRWIYDTSKLASGVPARFSGSGSGTSYSLTISSMETEDAATYYCQQWSSNPWTFGGGTKLEIK

Columns and labels:
Test in all cases: Scatchard, 125I-ligand, solubilised TSHR on tubes
[1] = molecular target: porcine TSH (RSR Ltd, 70 units per mg) (porcine, UniProt P01219 25-120; P01224 21-132)
TSHR Arg255 to Asp = molecular target: T1, TSHR Arg255 to Asp (human, UniProt P16473 21-764)
T1 construct: whole, on cells; as m1; also called TSHR with Arg255 mutated to Asp; Arg255 Asp mutation
Method: (§1) Firstly, dilution profiles of each TSHR preparation were set up. In these experiments, plastic tubes (Maxisorp Star; NUNC) were coated overnight at 4° C. with 200 µL of a mouse monoclonal antibody to the TSHR C-terminus at 10 µg/mL in coating buffer (0.1 mmol/L Na_2CO$_3$ pH 9.2). After washing and post-coating (10 mg/mL of BSA in water) the tubes were washed with assay buffer (10 mmol/L Tris-HCl pH 7.8, 50 mmol/L NaCl and 1 mg/mL BSA) containing 0.1% Triton X-100. In the next step, 200 µL of solubilized wild type or mutated TSHR preparations were added to the tubes and incubated overnight at 4 C. […] After aspiration of the solutions, the tubes were washed and counted in a gamma counter.

TSHR Asp276 to Ala = molecular target: T2, TSHR Asp276 to Ala (human, UniProt P16473 21-764)
T2 construct: whole, on cells; as m1; also called Asp276 mutated to Ala
Method: as §1

[2] = molecular target: T3, human thyrotropin receptor (TSHR), wild type, full length (human, UniProt P16473 21-764)
T3 construct: whole, on cells; Full length cDNA in pcDNA5.1/FRT, stably expressed in Flp-In-CHO cells; Cyclic AMP assays: on the cells; also called TSH receptor; Wild type TSHR
Method: as §1

TSHR Tyr185 to Ala = molecular target: T4, TSHR Tyr185 to Ala (human, UniProt P16473 21-764)
T4 construct: whole, on cells; as m1
Method: as §1

TSHR Phe134 to Ala = molecular target: T5, TSHR Phe134 to Ala (human, UniProt P16473 21-764)
T5 construct: whole, on cells; as m1
Method: as §1

TSHR Glu61 to Ala = molecular target: T6, TSHR Glu61 to Ala (human, UniProt P16473 21-764)
T6 construct: whole, on cells; as m1; also called Glu61 mutated to Ala
Method: as §1

TSHR Asp160 to Ala = molecular target: T7, TSHR Asp160 to Ala (human, UniProt P16473 21-764)
T7 construct: whole, on cells; as m1
Method: as §1

TSHR Glu251 to Ala = molecular target: T8, TSHR Glu251 to Ala (human, UniProt P16473 21-764)
T8 construct: whole, on cells; as m1
Method: as §1

TSHR Glu107 to Ala = molecular target: T9, TSHR Glu107 to Ala (human, UniProt P16473 21-764)
T9 construct: whole, on cells; as m1
Method: as §1

TSHR Lys209 to Ala = molecular target: T10, TSHR Lys209 to Ala (human, UniProt P16473 21-764)
T10 construct: whole, on cells; as m1
Method: as §1

TSHR Ser281 to Ala = molecular target: T11, TSHR Ser281 to Ala (human, UniProt P16473 21-764)
T11 construct: whole, on cells; as m1; also called Ser281 mutated to Ala
Method: as §1

TSHR Thr257 to Ala = molecular target: T12, TSHR Thr257 to Ala (human, UniProt P16473 21-764)
T12 construct: whole, on cells; as m1
Method: as §1

TSHR Glu157 to Ala = molecular target: T13, TSHR Glu157 to Ala (human, UniProt P16473 21-764)
T13 construct: whole, on cells; as m1; also called Glu157 mutated to Ala
Method: as §1

TSHR Arg274 to Ala = molecular target: T14, TSHR Arg274 to Ala (human, UniProt P16473 21-764)
T14 construct: whole, on cells; as m1
Method: as §1

TSHR Tyr279 to Ala = molecular target: T15, TSHR Tyr279 to Ala (human, UniProt P16473 21-764)
T15 construct: whole, on cells; as m1
Method: as §1

TSHR Trp258 to Ala = molecular target: T16, TSHR Trp258 to Ala (human, UniProt P16473 21-764)
T16 construct: whole, on cells; as m1; also called Trp258 mutated to Ala
Method: as §1

TSHR Gln235 to Ala = molecular target: T17, TSHR Gln235 to Ala (human, UniProt P16473 21-764)
T17 construct: whole, on cells; as m1
Method: as §1

[3] = molecular target: T18, TSHR Arg255 to Ala and Trp258 to Ala (human, UniProt P16473 21-764)
T18 construct: whole, on cells; as m1
Method: as §1

TSHR Asp203 to Ala = molecular target: T19, TSHR Asp203 to Ala (human, UniProt P16473 21-764)
T19 construct: whole, on cells; as m1; also called Asp203 mutated to Ala
Method: as §1

TSHR Lys250 to Ala = molecular target: T20, TSHR Lys250 to Ala (human, UniProt P16473 21-764)
T20 construct: whole, on cells; as m1
Method: as §1

TSHR Phe130 to Ala = molecular target: T21, TSHR Phe130 to Ala (human, UniProt P16473 21-764)
T21 construct: whole, on cells; as m1
Method: as §1

TSHR Arg255 to Ala = molecular target: T22, TSHR Arg255 to Ala (human, UniProt P16473 21-764)
T22 construct: whole, on cells; as m1; also called Arg255 mutated to Ala
Method: as §1

TSHR Asp43 to Ala = molecular target: T23, TSHR Asp43 to Ala (human, UniProt P16473 21-764)
T23 construct: whole, on cells; as m1; also called Asp43 mutated to Ala
Method: as §1

TSHR Glu178 to Ala = molecular target: T24, TSHR Glu178 to Ala (human, UniProt P16473 21-764)
T24 construct: whole, on cells; as m1; also called Glu178 mutated to Ala
Method: as §1

[4] = molecular target: B2
[5] = molecular target: T3, human thyrotropin receptor (TSHR), wild …; remark: listed apart in the source
[6] = molecular target: T25, TSHR Tyr185 to Ala and Lys183 to Ala (human, UniProt P16473 21-764)
T25 construct: whole, on cells; as m1

[7] = molecular target: T26, TSHR Glu157 to Ala and Asp203 to Ala (human, UniProt P16473 21-764)
T26 construct: whole, on cells; as m1

[8] = molecular target: T27, TSHR Glu178 to Ala and Asp203 to Ala (human, UniProt P16473 21-764)
T27 construct: whole, on cells; as m1

[9] = molecular target: B3
[10] = molecular target: T28, TSHR Arg255 to Ala and Tyr185 to Ala (human, UniProt P16473 21-764)
T28 construct: whole, on cells; as m1

[11] = molecular target: T29, TSHR Trp258 to Ala and Tyr185 to Ala (human, UniProt P16473 21-764)
T29 construct: whole, on cells; as m1

Binder: B1
binding result [1]: no binding

Binder: B2
binding result [1]: no binding

Binder: B3
binding result [1]: no binding

Binder: B4
binding result [1]: no binding

Binder: B5
binding result [1]: no binding

Binder: B6
Ka (TSHR Arg255 to Asp): 1.3e+10 M⁻¹
Ka (TSHR Asp276 to Ala): 1.3e+10 M⁻¹
Ka [2]: 1.8e+10 M⁻¹
Ka (TSHR Tyr185 to Ala): 9e+09 M⁻¹
Ka (TSHR Phe134 to Ala): 5e+09 M⁻¹
Ka (TSHR Glu61 to Ala): 9e+09 M⁻¹
Ka (TSHR Asp160 to Ala): 1e+10 M⁻¹
Ka (TSHR Glu251 to Ala): 8e+09 M⁻¹
Ka (TSHR Glu107 to Ala): 6e+09 M⁻¹
Ka (TSHR Lys209 to Ala): 8e+09 M⁻¹
Ka (TSHR Ser281 to Ala): 9e+09 M⁻¹
Ka (TSHR Thr257 to Ala): 7e+09 M⁻¹
Ka (TSHR Glu157 to Ala): 1.3e+10 M⁻¹
Ka (TSHR Arg274 to Ala): 5e+09 M⁻¹
Ka (TSHR Tyr279 to Ala): 6e+09 M⁻¹
Ka (TSHR Trp258 to Ala): 1.2e+10 M⁻¹
Ka (TSHR Gln235 to Ala): 1.1e+10 M⁻¹
Ka [3]: 1.1e+10 M⁻¹
Ka (TSHR Asp203 to Ala): 1.4e+10 M⁻¹
Ka (TSHR Lys250 to Ala): 6e+09 M⁻¹
Ka (TSHR Phe130 to Ala): 9e+09 M⁻¹
Ka (TSHR Arg255 to Ala): 8e+09 M⁻¹
Ka (TSHR Asp43 to Ala): 1.4e+10 M⁻¹
Ka (TSHR Glu178 to Ala): 1.3e+10 M⁻¹
Ka [4]: 8e+09 M⁻¹
Ka [5]: 1.8e+10 M⁻¹
Ka [6]: 6e+09 M⁻¹
Ka [7]: 6e+09 M⁻¹
Ka [8]: 8e+09 M⁻¹
Ka [9]: 3e+09 M⁻¹
Ka [10]: 9e+09 M⁻¹
Ka [11]: 9e+09 M⁻¹
